Reference: FireProtDB (doi:10.1021/bi201253b)

Details: Moniliophthora perniciosa, pH 7.2, Thermal, CD, sodium phosphate buffer 4mM, whole UniProt chain shown

B1: wild type, A5H7H0 (protein)
chain: MQLQNFLSIVLLVVSGAIAGTVMDHDKIAKLPASGSPLETKFQPQLHIGNGCHSYPAVDAQGNWSGGLKPTGAPSAACKDTSKAQTYVRSATFQGKTALVYAWYMPKDEISTGIGHRHDWEGAVVFLNSDTQQIDGVAASAHGKWRKYPNPGGANIDDTHVKLQYSAEPVINSHALDLTDKGGDLPTLASWEGMGADARAAINERSHWGDANPPIADSLIGSSLSGAWMW
With B1 as the protein, how does the Tm (EDTA CaCl2 62.5 micro M 120 micro M) read?
Its Tm is 41.6 °C.

And the Tm (EDTA CaCl2 with ZnCl2 62.5 micro M 120 micro M 120 micro M)?
The Tm was 40 °C.

What about the Tm (EDTA ZnCl2 62.5 micro M 120 micro M) of the same protein?
Its Tm is 41.2 °C.
